Measurements: US20100062462
Positions count from the first letter of the chain named.

Assays:
[1] = test system: T1, Flag-procaspase-8-Myc fusion polypeptide
T1 sequence: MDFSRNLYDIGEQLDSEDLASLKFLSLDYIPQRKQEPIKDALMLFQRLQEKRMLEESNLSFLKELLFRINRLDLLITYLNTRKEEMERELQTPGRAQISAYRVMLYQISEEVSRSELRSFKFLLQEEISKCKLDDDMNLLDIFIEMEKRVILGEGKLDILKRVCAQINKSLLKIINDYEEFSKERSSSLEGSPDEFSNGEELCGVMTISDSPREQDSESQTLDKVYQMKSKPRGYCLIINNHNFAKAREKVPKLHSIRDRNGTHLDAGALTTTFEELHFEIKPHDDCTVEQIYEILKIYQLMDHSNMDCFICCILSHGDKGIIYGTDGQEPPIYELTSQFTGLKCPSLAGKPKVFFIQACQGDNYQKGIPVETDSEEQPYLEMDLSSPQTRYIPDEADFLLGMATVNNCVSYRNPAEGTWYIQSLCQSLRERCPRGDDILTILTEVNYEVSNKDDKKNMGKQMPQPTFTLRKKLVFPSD

[2] = test system: T2, procaspase-8 F355R, F356N
T2 sequence: T1 sequence with F355R, F356N

procaspase-8 p18 subunit = test system: T3, procaspase-8 p18 subunit
T3 sequence: T1 sequence

Substance | cleavage (autoradiography) [1] | cleavage (autoradiography) [2] | cleavage (LC-MS of the cleaved p18 fragment) (procaspase-8 p18 subunit)
HIV-1 protease | Incubation of wild-type procaspase-8 with HIV protease resulted in a p41 procaspase-8 fragment | an almost negligible amount of cleavage was observed when procaspase-8 F355R, F356N was incubated with HIV protease | This fragment had a weight of 16158 mass units (cleaved form)
renin | another aspartyl protease, renin, did not cause procaspase 8 cleavage |  | 
